Results published in US20200392228A1 (PANDION OPERATIONS, published 2020).
Where two headings read alike, the source gives them in different places.

Key:
[1] = target: T1, human MAdCAM expressed on cells (human, UniProt Q13477 19-382); assay: cell binding
T1 construct: whole, on cells; also called MADCAM1
T1 sequence (looked up): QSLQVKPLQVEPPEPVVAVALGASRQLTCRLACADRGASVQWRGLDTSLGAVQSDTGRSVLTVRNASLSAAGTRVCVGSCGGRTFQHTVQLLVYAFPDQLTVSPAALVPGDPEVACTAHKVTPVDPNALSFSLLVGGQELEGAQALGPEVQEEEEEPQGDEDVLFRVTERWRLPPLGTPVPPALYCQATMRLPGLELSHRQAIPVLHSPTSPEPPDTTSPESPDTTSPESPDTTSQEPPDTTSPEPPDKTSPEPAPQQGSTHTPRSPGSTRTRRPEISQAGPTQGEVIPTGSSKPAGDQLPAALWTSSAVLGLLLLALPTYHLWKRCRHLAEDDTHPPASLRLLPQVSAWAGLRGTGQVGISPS

human MAdCAM protein = target: T2, human MAdCAM protein (human, UniProt Q13477 19-317); assay: Octet
T2 construct: used for Octet, SPR, ELISA and plate capture; construct not described; also called recombinant human MAdCAM; soluble monomeric human MAdCAM
T2 sequence (looked up): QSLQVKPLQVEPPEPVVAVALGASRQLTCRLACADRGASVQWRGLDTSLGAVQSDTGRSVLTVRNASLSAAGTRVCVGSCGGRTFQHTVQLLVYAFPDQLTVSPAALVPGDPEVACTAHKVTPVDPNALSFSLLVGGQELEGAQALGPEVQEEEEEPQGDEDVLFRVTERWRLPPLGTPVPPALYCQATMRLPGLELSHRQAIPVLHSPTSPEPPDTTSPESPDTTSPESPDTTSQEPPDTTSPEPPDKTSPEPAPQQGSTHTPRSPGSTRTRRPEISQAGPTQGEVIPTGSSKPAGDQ

[2] = target: T3, mouse MAdCAM expressed on cells (mouse, UniProt Q61826 22-405); assay: cell binding
T3 construct: whole, on cells
T3 sequence (looked up): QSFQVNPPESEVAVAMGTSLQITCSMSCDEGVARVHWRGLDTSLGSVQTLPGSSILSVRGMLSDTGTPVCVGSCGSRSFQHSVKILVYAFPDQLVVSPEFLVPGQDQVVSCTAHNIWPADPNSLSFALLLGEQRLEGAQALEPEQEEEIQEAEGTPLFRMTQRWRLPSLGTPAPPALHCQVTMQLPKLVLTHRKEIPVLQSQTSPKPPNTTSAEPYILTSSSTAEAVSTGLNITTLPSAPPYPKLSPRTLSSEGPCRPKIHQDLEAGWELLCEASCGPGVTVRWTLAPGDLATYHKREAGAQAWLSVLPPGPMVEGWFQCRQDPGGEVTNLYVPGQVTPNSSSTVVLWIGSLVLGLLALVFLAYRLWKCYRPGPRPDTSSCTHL

[3] = target: T3, mouse MAdCAM expressed on cells; assay: cell binding; remark: listed apart in the source
[4] = target: T1, human MAdCAM expressed on cells; assay: cell binding; remark: listed apart in the source

Binder	binding result [1]	binding result (human MAdCAM protein)	binding result [2]	binding result [3]	binding result [4]
MAdCAM antibody Clone ID 1 of Table 6 (scFv) (scFv) scFv: EVQLLESGGGLVQPGGSLRLSCAASGFTFSSYGMHWVRQAPGKGLEWVAVISDDGSDKYYADSVKGRFTISRDNSKNTLYLQMNSLRAEDTAVYYCTTSKYYYYYGMDVWGQGTTVTVSSGGGGSGGGGSGGGGSGGGGSDIQMTQSPSSLSASVGDRVTITCQASQDISKSLNWYQQKPGKAPKLLIYAASSLQSGVPSRFSGSGSGTDFTLTISSLQPEDFATYYCQQGYSTPLTFGGGTKVEIK	binds	binds			
MAdCAM antibody Clone ID 60 of Table 6 (scFv) (scFv) scFv: EVQLLESGGGLVQPGGSLRLSCAASGFTFDDYTMHWVRQAPGKGLEWVSDISGSGGSTYYADSVKGRFTISRDNSKNTLYLQMNSLRAEDTAVYYCAKDVVVAGTPLHFDYWGQGTLVTVSSGGGGSGGGGSGGGGSGGGGSDIQMTQSPSSLSASVGDRVTITCQASQDISNYLNWYQQKPGKAPKLLIYAASYLQSGVPSRFSGSGSGTDFTLTISSLQPEDFATYYCQQAHNYPITFGQGTRLEIK	binds	binds	binds		
MAdCAM antibody Clone ID 61 of Table 6 (scFv) (scFv) scFv: EVQLLESGGGLVQPGGSLRLSCAASEFTFSNAWMSWVRQAPGKGLEWVASISSTSAYIDYADSVKGRFTISRDNSKNTLYLQMNSLRAEDTAVYYCAREVVGATTFDYWGQGTLVTVSSGGGGSGGGGSGGGGSGGGGSDIQMTQSPSSLSASVGDRVTITCRASQSISTWLAWYQQKPGKAPKLLIYAASSLQSGVPSRFSGSGSGTDFTLTISSLQPEDFATYYCQQANAFPPTFGQGTRLEIK	binds	binds	binds		
MAdCAM antibody Clone ID 64 of Table 6 (scFv) (scFv) scFv: EVQLLESGGGLVKPGGSLRLSCAASGFAFSSHWMHWVRQAPGKGLEWVAGTSGSGESRDYADFVKGRFTISRDDSKNTLYLQMNSLKTEDTAVYYCARETYYYYYMDVWGKGTTVTVSSGGGGSGGGGSGGGGSGGGGSDIQMTQSPSSLSASVGDRVTITCRASQGISNYLAWYQQKPGKAPKLLIYDAANLEGGVPSRFSGSGSGTDFTLTISSLQPEDFATYYCQQSDIFPPTFGQGTKVEIK	binds	binds	binds		
MAdCAM antibody Clone ID 65 of Table 6 (scFv) (scFv) scFv: QVQLVQSGAEVKKPGASVKVSCKASGYTFTRHWIHWVRQAPGQGLEWMGWINVKTGGAGYAQKFQGRVTMTRDTSTSTVYMELSSLRSEDTAVYYCARESSGWYGTDVWGQGTTVTVSSGGGGSGGGGSGGGGSGGGGSDIQMTQSPSSLSASVGDRATITCRASQSISNYLAWYQQKPGKAPKLLIYAASSLQSGVPSRFSGSGSGTDFTLTISSLQPEDFATYYCQQSNSFPLTFGGGTKVEIK	binds	binds	binds		
MAdCAM antibody Clone ID 34 of Table 7 (IgG) (antibody, V domains shown, IgG format) VH: QVQLVQSGAEVKKPGASVKVSCKASGYTFTGYYIHWVRQAPGQGLEWMGWMNPNSGNTGYAQKFQGRVTMTRDTSTSTVYMELSSLRSEDTAVYYCARDPGFLGYCSGGSCYDGWFDPWGQGTLVTVSS VL: DIQMTQSPSSLSASVGDRVTITCRASQSISSYLHWYQQKPGKAPKLLIYAASSLQSGVPSRFSGSGSGTDFTLTISSLQPEDFATYYCQQSYTAPYTFGQGTKLEIK				no binding	binds
MAdCAM antibody Clone ID 37 of Table 7 (IgG) (antibody, V domains shown, IgG format) VH: EVQLLESGGGLVQPGGSLRLSCAASGFTFSDYGMPWVRQAPGKGLEWVSAISGSGGSTYYADSVKGRFTISRDNSKNTLYLQMNSLRAEDTAVYYCARDGGWQPAAILDYWGQGTLVTVSS VL: DIQMTQSPSSLSASVGDRVTITCRASQGISNNLNWYQQKPGKAPKLLIYDASNLETGVPSRFSGSGSGTDFTLTISSLQPEDFATYYCQQSYSTPLTFGQGTKVEIK				no binding	binds
MAdCAM antibody Clone ID 59 of Table 7 (IgG) (antibody, V domains shown, IgG format) VH: EVQLLESGGGLVQPGGSLRLSCAASGFSFSDYGMHWVRQAPGKGLEWVSAISGSGGSTYYADSVKGRFTISRDNSKNTLYLQMNSLRAEDTAVYYCARDGGWQPAAILDYWGQGTLVTVSS VL: DIQMTQSPSSLSASVGDRVTITCRASQGISNNLNWYQQKPGKAPKLLIYDASNLETGVPSRFSGSGSGTDFTLTISSLQPEDFATYYCQQSYSTPLTFGGGTKVEIK				no binding	binds
MAdCAM antibody Clone ID 38 of Table 7 (IgG) (antibody, V domains shown, IgG format) VH: QVQLVQSGAEVKKPGASVKVSCKASGYTFTDYFLHWVRQAPGQGLEWMGWMNPTSGNTGYAQKFQGRVTMTRDTSTSTVYMELSSLRSEDTAVYYCAREGEGSGFDYWGQGTLVTVSS VL: DIQMTQSPSSLSASVGDRVTITCRASQGINSWLAWYQQKPGKAPKLLIYDASNLETGVPSRFSGSGSGTDFTLTISSLQPEDFATYYCQQSYSTPLTFGGGTKVEIK				no binding	binds
MAdCAM antibody Clone ID 39 of Table 7 (IgG) (antibody, V domains shown, IgG format) VH: QVQLVQSGAEVKKPGASVKVSCKASGYTFTSYYMHWVRQAPGQGLEWMAWMNPNSGNTGYAQKFQGRVTMTRDTSTSTVYMELSSLRSEDTAVYYCARDYDFWSGSLGYWGQGTLVTVSS VL: DIQMTQSPSSLSASVGDRVTITCRASQGISNYLAWYQQKPGKAPKLLIYAASSLQSGVPSRFSGSGSGTDFTLTISSLQPEDFATYYCQQSYSTPWTFGQGTKVEIK				no binding	binds
MAdCAM antibody Clone ID 41 of Table 7 (IgG) (antibody, V domains shown, IgG format) VH: QVQLVQSGAEVKKPGASVKVSCKASGYTFTSYYMHWVRQAPGQGLEWMGIINPSGGSTSYAQKFQGRVTMTRDTSTSTVYMELSSLRSEDTAVYYCARDTGYSYGRYYYYGMDVWGQGTLVTVSS VL: DIQMTQSPSSLSASVGDRVTITCRASQSIGRWLAWYQQKPGKAPKLLIYDASNLQSGVPSRFSGSGSGTDFTLTISSLQPEDFATYYCQQSYSIPITFGQGTKVEIK				no binding	binds
MAdCAM antibody Clone ID 42 of Table 7 (IgG) (antibody, V domains shown, IgG format) VH: QVQLVQSGAEVKKPGASVKVSCKASGYTLTDYYMHWVRQAPGQGLEWMGIINPSGGSTSYAQKFQGRVTMTRDTSTSTVYMELSSLRSEDTAVYYCAREEYSSSSGYFDYWGQGTLVTVSS VL: DIQMTQSPSSLSASVGDRVTITCRASQGISSWLAWYQQKPGKAPKLLIYAASSLQSGVPSRFSGSGSGTDFTLTISSLQPEDFATYYCQQSYSTPLTFGQGTKVEIK				no binding	binds
MAdCAM antibody Clone ID 43 of Table 7 (IgG) (antibody, V domains shown, IgG format) VH: QVQLVQSGAEVKKPGASVKVSCKASGYTFTSYGISWVRQAPGQGLEWMGWMHPKSGDTGLTQKFQGRVTMTRDTSTSTVYMELSSLRSEDTAVYYCARDTPYYYYGMDVWGQGTTVTVSS VL: DIQMTQSPSSLSASVGDRVTITCRASQSISSWLAWYQQKPGKAPKLLIYAASSLQSGVPSRFSGSGSGTDFTLTISSLQPEDFATYYCQQSYSVPITFGQGTKVEIK				no binding	binds
MAdCAM antibody Clone ID 44 of Table 7 (IgG) (antibody, V domains shown, IgG format) VH: not shown VL: DIQMTQSPSSLSASVGDRVTITCQASQDISNYLNWYQQKPGKAPKLLIYAASSLQSGVPSRFSGSGSGTDFTLTISSLQPEDFATYYCQQTYSGWTFGPGTKVDIK				no binding	binds
MAdCAM antibody Clone ID 52 of Table 7 (IgG) (antibody, V domains shown, IgG format) VH: EVQLLESGGGLVQPGGSLRLSCAASGFTFDDYGMSWVRQAPGKGLEWVSYISSSSSYIYYADSVKGRFTISRDNSKNTLYLQMNSLRAEDTAVYYCAREIAAAGFYGMDVWGQGTTVTVSS VL: not shown				no binding	binds
MAdCAM antibody Clone ID 57 of Table 7 (IgG) (antibody, V domains shown, IgG format) VH: EVQLLESGGGLVQPGGSLRLSCAASGFSVSSNYMSWVRQAPGKGLEWVAGISYDGSSKPYADSVKGRFTISRDNSKNTLYLQMNSLRAEDTAVYYCARSRGIAARPLQHWGQGTLVTVSS VL: not shown				no binding	binds
